Patent US20260035450

Molecular target: T1, recombinant human ANGPTL3 (rhANGPTL3) (SEQ ID NO:1)
T1 chain: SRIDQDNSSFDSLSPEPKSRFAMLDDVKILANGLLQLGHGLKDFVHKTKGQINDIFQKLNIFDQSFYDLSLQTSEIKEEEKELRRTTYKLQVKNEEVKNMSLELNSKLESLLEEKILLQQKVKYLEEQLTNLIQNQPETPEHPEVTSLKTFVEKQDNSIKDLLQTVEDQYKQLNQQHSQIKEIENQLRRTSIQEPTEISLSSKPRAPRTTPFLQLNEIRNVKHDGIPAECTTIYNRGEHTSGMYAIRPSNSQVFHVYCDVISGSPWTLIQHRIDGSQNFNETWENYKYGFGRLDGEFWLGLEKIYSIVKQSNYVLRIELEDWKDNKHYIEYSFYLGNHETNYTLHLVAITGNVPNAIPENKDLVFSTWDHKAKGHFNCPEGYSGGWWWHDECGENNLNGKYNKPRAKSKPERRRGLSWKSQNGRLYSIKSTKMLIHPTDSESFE

B1: bovine LPL (protein)
chain: DRITGGKDFRDIESKFALRTPEDTAEDTCHLIPGVTESVANCHFNHSSKTFVVIHGWTVTGMYESWVPKLVAALYKREPDSNVIVVDWLSRAQQHYPVSAGYTKLVGQDVAKFMNWMADEFNYPLGNVHLLGYSLGAHAAGIAGSLTNKKVNRITGLDPAGPNFEYAEAPSRLSPDDADFVDVLHTFTRGSPGRSIGIQKPVGHVDIYPNGGTFQPGCNIGEALRVIAERGLGDVDQLVKCSHERSVHLFIDSLLNEENPSKAYRCNSKEAFEKGLCLSCRKNRCNNMGYEINKVRAKRSSKMYLKTRSQMPYKVFHYQVKIHFSGTESNTYTNQAFEISLYGTVAESENIPFTLPEVSTNKTYSFLLYTEVDIGELLMLKLKWISDSYFSWSNWWSSPGFDIGKIRVKAGETQKKVIFCSREKMSYLQKGKSPVIFVKCHDKSLNRKSG
How did the “in vitro enzymatic activity of lipoprotein lipase (LPL), EnzChek Lipase substrate” value turn out when B1 was run?
The value was “The activity of bovine LPL is inhibited by addition of recombinant hANGPTL3 (rhANGPTL3)”.
